Data set [1] can be described thus: Accelerated stability study, 2 weeks at 37° C., SDS-PAGE and Reversed Phase HPLC (RPC).
Description: The stability was measured by the appearance of new variants after the stability testing by SDS-PAGE and Reversed Phase HPLC (RPC). In both analyses the initial sample and the one subjected to the stability study were run in parallel. For the SDS-PAGE, 7.5 μg protein was loaded into each well.
The purified proteins were formulated in 25 mM NaP/125 mM NaCl pH 7.0 and subjected to an accelerated stability study for 2 weeks at 37° C. The stability was measured by the appearance of new variants after the stability testing by SDS-PAGE and Reversed Phase HPLC (RPC). In both analyses the initial sample and the one subjected to the stability study were run in parallel. For the SDS-PAGE, 7.5 μg protein was loaded into each well.
Data set [2] is described as follows: 3 month stability test at 37° C., RPC. The format is physicochemical. The text has this: The 2 weeks data from example 2 is included in Table VIII below to make the interpretation easier.
The mark [3] stands for this setting: after 2 weeks at 37° C., 25 mM NaP/125 mM NaCl pH 7.0.

From patent US9994626B2, “Stable polypeptides binding to human complement C5” (Swedish Orphan Biovitrum AB (publ), priority 2013, dated 2018) come the findings set out here.

B1: PSI0383: C5 binding compound with N52S, D53E, D60E and loop [L2] substitutions D36R, D37Q, S39E (protein)
chain: AEAKYAKEVLEAWDEIDRLPNLTIEQWLAFINKLDRQPEQSSELLSEAKKLSESQAPKVEGSLAEAKEAANAELDSYGVSDFYKRLIDKAKTVEGVEALKDAILAALP
modifications: Modified bacterial sequence
B1: the “stability when compared with PSI0242” value in data set [1] (2 weeks at 37° C., conclusion in words) is reported as “increased stability”. In addition, the “Main peak (% of total protein)” value in data set [1] (RPC after 2 weeks at 37° C., 25 mM NaP/125 mM NaCl pH 7.0) is given as 91 % of total protein. For the same molecule, the “2 weeks, 37° C. Main peak (% of total protein)” value in data set [1] (RPC, 2 weeks, 37° C., data from example 2) is reported as 91 % of total protein. In data set [1] (setting [3]), this molecule showed an RPC post peaks of 0, an RPC prepeaks of 0 and an SDS-PAGE bands of 1. The “3 months, 37° C. Main peak (% of total protein)” value in data set [2] (RPC, 3 months, 37° C.) is on record as 59 % of total protein. Moreover, the “proportion of protein in the original form after 3 months at 37° C. versus PSI0242 after 2 weeks” value in data set [2] (result in words) is on record as “higher proportion of protein in the original form”.
